Data reported in patent publication US20250051435A1 (INVETX, published 2025).

T1: feline IL-5 (Kingfisher Biotech; RP1152F) (feline, UniProt O77515 20-134)
T1 construct: Bought recombinant protein; also called fIL-5; fIL5
T1 sequence (looked up): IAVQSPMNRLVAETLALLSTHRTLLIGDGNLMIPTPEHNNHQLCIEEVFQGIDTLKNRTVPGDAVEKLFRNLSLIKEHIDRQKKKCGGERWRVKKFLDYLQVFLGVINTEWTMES


Each binder was assayed against T1, feline IL-5 (Kingfisher Biotech; …) (assay: ELISA, Fab culture supernatant on plate-coated feline IL-5, anti-feline Fab'2-HRP detection).
Description: Fragments containing the pre-selected CDR pools from these libraries were randomly paired by overlap PCR to create a new library incorporating mutations throughout all targeted CDRs. The phage propagated following round 4 of selection were used for PCR amplication of LCDR2, LCDR3 and HCDR3. The PCR-amplified fragment containing the light chain and the heavy chain were ligated into a phagemid vector and transformed into E. coli. The number of transformants was approximately 2E+10. Library plasmid DNA was purified using a midi-prep purification method. Ten pg of the library plasmid DNA was transformed into E. coli for growth and propagation of the Fab phage. After overnight phage production, phage was precipitated from the culture supernatant and resuspended in blocking buffer (1% BSA/PBS). The phage were treated at 58° C. for 10 minutes to remove unstable clones prior to the selections. The input phage was incubated for 30 minutes in a blocked ELISA plate coated with feline IL-5. The ELISA plate was washed with PBS, pH 7.4 followed by acid elution of the bound phage. The output phage was then used to infect E. coli for propagation for the next round of selection. For rounds 1, 2, 3 and 4, the ELISA plates were coated with 10 μg/ml, 8 μg/ml, 5 μg/ml and 1 μg/ml, respectively. The number of washes after each round were 3, 5, 10 and 10 for rounds 1, 2, 3 and 4, respectively. Ninety-three clones from the round 4 output were grown overnight for Fab production and tested for binding to feline IL-5 in an ELISA format. For this assay, supernatants from the overnight cultures were incubated in Immulon 4 HBX high-binding plate that was coated with 10 μg/ml feline IL-5 (Kingfisher Biotech; Cat #RP1152F) and blocked with 1% bovine serum albumin in phosphate buffered saline (PBS), pH 7.4. The controls added included the MtxB clone and clone 1H3-C6 which was the top affinity clone from the first stage A1 step. The Fab binding to the feline IL-5 was detected with anti-feline Fab′₂-HRP conjugate.
The results are shown in Table 8A which compares relative Fab binding affinity to feline IL-5 by Fabs disclosed herein. IL-5 binding was detected with anti-feline Fab′₂-HRP conjugate. Differences in CDR amino acids compared to the MtxB are underlined. The data in the last column are absorbance following addition of substrate to detect the HRP conjugate.

Binder | fIL5 Fab (ELISA absorbance) [absorbance]
LxH3-D3 Fab (affinity matured MtxB) (Fab, V domains shown, Fab from the Stage B library on MtxB; the entries named are the parent, the changed regions are told under detail) VH: DVQLVESGGDLVKPGGSLRLTCVGSGFTFSNYAMSWVRQAPGEGLQWVATIGSGGHYTYHPDSVKGRFTISRDNAKNTLYLQMNSLQTEDTASYYCTRETDGYGPILDWGQGTLVTVSS VL: DIVMTQTPLSLSVTPGEPASISCRASQSISDYLYWYLQKPGQSPRLLFNVLSQRSSGVPDRFSGSGSGTDFTLRISRVEADDVGVYYCQQGLVFPYTFGPGTKLEIK | 1.28
LxH3-F3 Fab (affinity matured MtxB) (Fab, V domains shown, Fab from the Stage B library on MtxB; the entries named are the parent, the changed regions are told under detail) VH: DVQLVESGGDLVKPGGSLRLTCVGSGFTFSNYAMSWVRQAPGEGLQWVATIGSGGHYTYHPDSVKGRFTISRDNAKNTLYLQMNSLQTEDTASYYCTRETDGYGPLDLWGQGTLVTVSS VL: DIVMTQTPLSLSVTPGEPASISCRASQSISDYLYWYLQKPGQSPRLLFNSVSPTRSGVPDRFSGSGSGTDFTLRISRVEADDVGVYYCQQGVVFPYTFGPGTKLEIK | 1.16
LxH3-D9 Fab (affinity matured MtxB) (Fab, V domains shown, Fab from the Stage B library on MtxB; the entries named are the parent, the changed regions are told under detail) VH: DVQLVESGGDLVKPGGSLRLTCVGSGFTFSNYAMSWVRQAPGEGLQWVATIGSGGHYTYHPDSVKGRFTISRDNAKNTLYLQMNSLQTEDTASYYCTRETDGYGPILDWGQGTLVTVSS VL: DIVMTQTPLSLSVTPGEPASISCRASQSISDYLYWYLQKPGQSPRLIINYGSVLLSGVPDRFSGSGSGTDFTLRISRVEADDVGVYYCQQGLLFPYTFGPGTKLEIKR | 1.13
LxH3-A9 Fab (affinity matured MtxB) (Fab, V domains shown, Fab from the Stage B library on MtxB; the entries named are the parent, the changed regions are told under detail) VH: DVQLVESGGDLVKPGGSLRLTCVGSGFTFSNYAMSWVRQAPGEGLQWVATIGSGGHYTYHPDSVKGRFTISRDNAKNTLYLQMNSLQTEDTASYYCTRETDGYGPLDLWGQGTLVTVSS VL: DIVMTQTPLSLSVTPGEPASISCRASQSISDYLYWYLQKPGQSPRRIIFTGSQRNSGVPDRFSGSGSGTDFTLRISRVEADDVGVYYCQQGMVFPYTFGPGTKLEIKR | 0.722
LxH3-B6 Fab (affinity matured MtxB) (Fab, V domains shown, Fab from the Stage B library on MtxB; the entries named are the parent, the changed regions are told under detail) VH: DVQLVESGGDLVKPGGSLRLTCVGSGFTFSNYAMSWVRQAPGEGLQWVATIGSGGHYTYHPDSVKGRFTISRDNAKNTLYLQMNSLQTEDTASYYCTRETDGYGPILDWGQGTLVTVSS VL: DIVMTQTPLSLSVTPGEPASISCRASQSISDYLYWYLQKPGQSPRLIFNPLSVRRSGVPDRFSGSGSGTDFTLRISRVEADDVGVYYCQQGMVFPYTFGPGTKLEIKR | 0.972
LxH3-B10 Fab (affinity matured MtxB) (Fab, V domains shown, Fab from the Stage B library on MtxB; the entries named are the parent, the changed regions are told under detail) VH: DVQLVESGGDLVKPGGSLRLTCVGSGFTFSNYAMSWVRQAPGEGLQWVATIGSGGHYTYHPDSVKGRFTISRDNAKNTLYLQMNSLQTEDTASYYCTRETDGYGPILDWGQGTLVTVSS VL: DIVMTQTPLSLSVTPGEPASISCRASQSISDYLYWYLQKPGQSPRRLIFTGSQRASGVPDRFSGSGSGTDFTLRISRVEADDVGVYYCQQGVRFPYTFGPGTKLEIKR | 0.702
LxH3-D1 Fab (affinity matured MtxB) (Fab, V domains shown, Fab from the Stage B library on MtxB; the entries named are the parent, the changed regions are told under detail) VH: DVQLVESGGDLVKPGGSLRLTCVGSGFTFSNYAMSWVRQAPGEGLQWVATIGSGGHYTYHPDSVKGRFTISRDNAKNTLYLQMNSLQTEDTASYYCTRETDGYGPILDWGQGTLVTVSS VL: DIVMTQTPLSLSVTPGEPASISCRASQSISDYLYWYLQKPGQSPRRLIYFGSVRSSGVPDRFSGSGSGTDFTLRISRVEADDVGVYYCQQGLQFPYTFGPGTKLEIKR | 1.01
LxH3-D6 Fab (affinity matured MtxB) (Fab, V domains shown, Fab from the Stage B library on MtxB; the entries named are the parent, the changed regions are told under detail) VH: DVQLVESGGDLVKPGGSLRLTCVGSGFTFSNYAMSWVRQAPGEGLQWVATIGSGGHYTYHPDSVKGRFTISRDNAKNTLYLQMNSLQTEDTASYYCTRETDGYGPILDWGQGTLVTVSS VL: DIVMTQTPLSLSVTPGEPASISCRASQSISDYLYWYLQKPGQSPRRVIYTGSQRSSGVPDRFSGSGSGTDFTLRISRVEADDVGVYYCQQGLVFPYTFGPGTKLEIKR | 0.708
LxH3-E2 Fab (affinity matured MtxB) (Fab, V domains shown, Fab from the Stage B library on MtxB; the entries named are the parent, the changed regions are told under detail) VH: DVQLVESGGDLVKPGGSLRLTCVGSGFTFSNYAMSWVRQAPGEGLQWVATIGSGGHYTYHPDSVKGRFTISRDNAKNTLYLQMNSLQTEDTASYYCTRETDGYGPILDWGQGTLVTVSS VL: DIVMTQTPLSLSVTPGEPASISCRASQSISDYLYWYLQKPGQSPRRIFNHLSPSSSGVPDRFSGSGSGTDFTLRISRVEADDVGVYYCQQGSVFPYTFGPGTKLEIKR | 0.809
LxH3-E8 Fab (affinity matured MtxB) (Fab, V domains shown, Fab from the Stage B library on MtxB; the entries named are the parent, the changed regions are told under detail) VH: DVQLVESGGDLVKPGGSLRLTCVGSGFTFSNYAMSWVRQAPGEGLQWVATIGSGGHYTYHPDSVKGRFTISRDNAKNTLYLQMNSLQTEDTASYYCTRETDGYGPILDWGQGTLVTVSS VL: DIVMTQTPLSLSVTPGEPASISCRASQSISDYLYWYLQKPGQSPRLIINQASSKLSGVPDRFSGSGSGTDFTLRISRVEADDVGVYYCQQGPLFPYTFGPGTKLEIKR | 0.748
LxH3-F4 Fab (affinity matured MtxB) (Fab, V domains shown, Fab from the Stage B library on MtxB; the entries named are the parent, the changed regions are told under detail) VH: DVQLVESGGDLVKPGGSLRLTCVGSGFTFSNYAMSWVRQAPGEGLQWVATIGSGGHYTYHPDSVKGRFTISRDNAKNTLYLQMNSLQTEDTASYYCTRETDGYGPMLDWGQGTLVTVSS VL: DIVMTQTPLSLSVTPGEPASISCRASQSISDYLYWYLQKPGQSPRLLFNYGSVLASGVPDRFSGSGSGTDFTLRISRVEADDVGVYYCQQGYLFPYTFGPGTKLEIKR | 0.738
LxH3-F5 Fab (affinity matured MtxB) (Fab, V domains shown, Fab from the Stage B library on MtxB; the entries named are the parent, the changed regions are told under detail) VH: DVQLVESGGDLVKPGGSLRLTCVGSGFTFSNYAMSWVRQAPGEGLQWVATIGSGGHYTYHPDSVKGRFTISRDNAKNTLYLQMNSLQTEDTASYYCTRETDGYGPLDLWGQGTLVTVSS VL: DIVMTQTPLSLSVTPGEPASISCRASQSISDYLYWYLQKPGQSPRLIINPMSGQLSGVPDRFSGSGSGTDFTLRISRVEADDVGVYYCQQGLLFPYTFGPGTKLEIKR | 1.04
LxH3-F11 Fab (affinity matured MtxB) (Fab, V domains shown, Fab from the Stage B library on MtxB; the entries named are the parent, the changed regions are told under detail) VH: DVQLVESGGDLVKPGGSLRLTCVGSGFTFSNYAMSWVRQAPGEGLQWVATIGSGGHYTYHPDSVKGRFTISRDNAKNTLYLQMNSLQTEDTASYYCTRETDGYGPILDWGQGTLVTVSS VL: DIVMTQTPLSLSVTPGEPASISCRASQSISDYLYWYLQKPGQSPRRVFFHSSYRQSGVPDRFSGSGSGTDFTLRISRVEADDVGVYYCQQGMLFPFTFGPGTKLEIKR | 0.782
LxH3-F12 Fab (affinity matured MtxB) (Fab, V domains shown, Fab from the Stage B library on MtxB; the entries named are the parent, the changed regions are told under detail) VH: DVQLVESGGDLVKPGGSLRLTCVGSGFTFSNYAMSWVRQAPGEGLQWVATIGSGGHYTYHPDSVKGRFTISRDNAKNTLYLQMNSLQTEDTASYYCTRETDGYGPLDLWGQGTLVTVSS VL: DIVMTQTPLSLSVTPGEPASISCRASQSISDYLYWYLQKPGQSPRLIFNPLSVRRSGVPDRFSGSGSGTDFTLRISRVEADDVGVYYCQQGYVFPYTFGPGTKLEIKR | 0.513
LxH3-G2 Fab (affinity matured MtxB) (Fab, V domains shown, Fab from the Stage B library on MtxB; the entries named are the parent, the changed regions are told under detail) VH: DVQLVESGGDLVKPGGSLRLTCVGSGFTFSNYAMSWVRQAPGEGLQWVATIGSGGHYTYHPDSVKGRFTISRDNAKNTLYLQMNSLQTEDTASYYCTRETDGYGPLDLWGQGTLVTVSS VL: DIVMTQTPLSLSVTPGEPASISCRASQSISDYLYWYLQKPGQSPRLVINWGSQRASGVPDRFSGSGSGTDFTLRISRVEADDVGVYYCQQGAIFPYTFGPGTKLEIKR | 0.653
LxH3-G4 Fab (affinity matured MtxB) (Fab, V domains shown, Fab from the Stage B library on MtxB; the entries named are the parent, the changed regions are told under detail) VH: DVQLVESGGDLVKPGGSLRLTCVGSGFTFSNYAMSWVRQAPGEGLQWVATIGSGGHYTYHPDSVKGRFTISRDNAKNTLYLQMNSLQTEDTASYYCTRETDGYGPMDLWGQGTLVTVSS VL: DIVMTQTPLSLSVTPGEPASISCRASQSISDYLYWYLQKPGQSPRRLIYFGSLLSSGVPDRFSGSGSGTDFTLRISRVEADDVGVYYCQQGLLFPYTFGPGTKLEIKR | 0.545
LxH3-G7 Fab (affinity matured MtxB) (Fab, V domains shown, Fab from the Stage B library on MtxB; the entries named are the parent, the changed regions are told under detail) VH: DVQLVESGGDLVKPGGSLRLTCVGSGFTFSNYAMSWVRQAPGEGLQWVATIGSGGHYTYHPDSVKGRFTISRDNAKNTLYLQMNSLQTEDTASYYCTRETDGYGPILDWGQGTLVTVSS VL: DIVMTQTPLSLSVTPGEPASISCRASQSISDYLYWYLQKPGQSPRLVFNHASPVPSGVPDRFSGSGSGTDFTLRISRVEADDVGVYYCQQGIRFPYTFGPGTKLEIKR | 0.672
LxH3-G10 Fab (affinity matured MtxB) (Fab, V domains shown, Fab from the Stage B library on MtxB; the entries named are the parent, the changed regions are told under detail) VH: DVQLVESGGDLVKPGGSLRLTCVGSGFTFSNYAMSWVRQAPGEGLQWVATIGSGGHYTYHPDSVKGRFTISRDNAKNTLYLQMNSLQTEDTASYYCTRETDGYGPILDWGQGTLVTVSS VL: DIVMTQTPLSLSVTPGEPASISCRASQSISDYLYWYLQKPGQSPRRIIFTGSQRNSGVPDRFSGSGSGTDFTLRISRVEADDVGVYYCQQGAFFPYTFGPGTKLEIKR | 0.877
